From paper PMC9352680, “A comprehensive thermodynamic model for RNA binding by the Saccharomyces cerevisiae Pumilio protein PUF4”
Residue numbers refer to the chain shown, from its start. Names and notes keep the numbering of the source.

T1: PUF4 RNA-binding domain (Saccharomyces cerevisiae, UniProt P25339 537-888)
T1 sequence: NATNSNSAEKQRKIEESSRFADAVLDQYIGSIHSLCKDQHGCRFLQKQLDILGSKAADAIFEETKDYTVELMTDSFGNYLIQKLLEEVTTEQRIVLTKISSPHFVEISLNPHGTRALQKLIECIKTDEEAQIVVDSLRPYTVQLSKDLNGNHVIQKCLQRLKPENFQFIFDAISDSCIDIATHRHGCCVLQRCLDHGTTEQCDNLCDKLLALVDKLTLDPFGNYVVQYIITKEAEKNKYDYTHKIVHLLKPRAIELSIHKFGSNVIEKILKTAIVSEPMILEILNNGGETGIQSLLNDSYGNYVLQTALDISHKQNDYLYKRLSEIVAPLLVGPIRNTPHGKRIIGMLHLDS

B1: Ie_S2_P5E.1_K5.1_C5.1_H5.1_A5.1_F5.1_[+8C]_T5.1 (ssRNA)
RNA: UUUGAUUAAUAUGAUAUCGUUCUUUCUUGUAUUAUCUAUUCUUUCUCGAUAUCAUAUUAAUCUUU
B2: Ie_S2_P5E.1_K5.1_C5.1_H5.1_A5.1_F5.1_[+10T]_T5.1 (ssRNA)
RNA: B1 RNA with C36U, U37A, A38U
B3: Ie_S2_P5E.1_K5.1_C5.1_H5.1_A5.1_F5.1_[+8TC]_T5.1 (ssRNA)
RNA: UUUGAUUAAUAUGAUAUCGUUCUUUCUUGUAUUAUUCUAUUCUUUCUCGAUAUCAUAUUAAUCUUU
B4: Ie_S2_P5E.1_K5.1_C5.1_H5.1_A5.1_F5.1_[+10TT]_T5.1 (ssRNA)
RNA: B3 RNA with C37A, A39U
B5: Ie_S2_P5E.1_K5.1_C5.1_H5.1_A5.1_[+7CTCTC]_F5.1_T5.1 (ssRNA)
RNA: UUUGAUUAAUAUGAUAUCGUUCUUUCUUGUAUUACUCUCUUAUUCUUUCUCGAUAUCAUAUUAAUCUUU
B6: Ie_S2_P5E.1_K5.1_C5.1_H5.1_A5.1_F5.1_[+9CCCTT]_T5.1 (ssRNA)
RNA: B5 RNA with C35U, U38C
B7: Ie_S2_P5E.1_K5.1_C5.1_H5.1_A5.1_[+7TCTCT]_F5.1_T5.1 (ssRNA)
RNA: B5 RNA with C35U, U36C, C37U, U38C, C39U
B8: Ie_S2_P5E.1_K5.1_C5.1_H5.1_A5.1_F5.1_[+9CCTCT]_T5.1 (ssRNA)
RNA: B5 RNA with C35U, U38C, C39U, U40C
B9: Ie_S2_P5E.1_K5.1_C5.1_H5.1_A5.1_F5.1_[+10TCTCT]_T5.1 (ssRNA)
RNA: B5 RNA with C35U, C37A, U41C, A42U
B10: Ie_S2_P5E.1_K5.1_C5.1_H5.1_A5.1_F5.1_[+9TTCCT]_T5.1 (ssRNA)
RNA: B5 RNA with C35U, C37U, U40C
B11: Ie_S2_P5E.1_K5.1_C5.1_H5.1_A5.1_F5.1_[+8CCCTT]_T5.1 (ssRNA)
RNA: B5 RNA with C35U, U36C, U38C, C39U
B12: Ie_S2_P5E.1_K5.1_C5.1_H5.1_A5.1_F5.1_[+9CTCTC]_T5.1 (ssRNA)
RNA: B5 RNA with C35U, U41C
B13: Ie_S2_P5E.1_K5.1_C5.1_H5.1_A5.1_F5.1_[+9TCTCT]_T5.1 (ssRNA)
RNA: B5 RNA with C35U, C37U, U38C, C39U, U40C
B14: Ie_S2_P5E.1_K5.1_C5.1_H5.1_A5.1_F5.1_[+10TTCCT]_T5.1 (ssRNA)
RNA: B5 RNA with C35U, C37A, C39U, U40C, U41C, A42U
B15: Ie_S2_P5E.1_K5.1_C5.1_H5.1_A5.1_[+7CCTCT]_F5.1_T5.1 (ssRNA)
RNA: B5 RNA with U36C, C37U, U38C, C39U
B16: Ie_S2_P5E.1_K5.1_C5.1_H5.1_A5.1_[+7TTCCT]_F5.1_T5.1 (ssRNA)
RNA: B5 RNA with C35U, U38C, C39U
B17: Ie_S2_P5E.1_K5.1_C5.1_H5.1_A5.1_F5.1_[+8CTCTC]_T5.1 (ssRNA)
RNA: B5 RNA with C35U, U36C, C37U, U38C, C39U, U40C
B18: Ie_S2_P5E.1_K5.1_C5.1_H5.1_A5.1_F5.1_[+9CTT]_T5.1 (ssRNA)
RNA: UUUGAUUAAUAUGAUAUCGUUCUUUCUUGUAUUAUUCUUAUUCUUUCUCGAUAUCAUAUUAAUCUUU
B19: Ie_S2_P5E.1_K5.1_C5.1_H5.1_A5.1_[+7TCT]_F5.1_T5.1 (ssRNA)
RNA: B18 RNA with U36C, C37U
B20: Ie_S2_P5E.1_K5.1_C5.1_H5.1_A5.1_F5.1_[+9CCT]_T5.1 (ssRNA)
RNA: B18 RNA with U38C
B21: Ie_S2_P5E.1_K5.1_C5.1_H5.1_A5.1_[+7CTT]_F5.1_T5.1 (ssRNA)
RNA: B18 RNA with U35C, C37U
B22: Ie_S2_P5E.1_K5.1_C5.1_H5.1_A5.1_F5.1_[+10TTC]_T5.1 (ssRNA)
RNA: B18 RNA with C37A, A40C
B23: Ie_S2_P5E.1_K5.1_C5.1_H5.1_A5.1_F5.1_[+8TTT]_T5.1 (ssRNA)
RNA: B18 RNA with C37U
B24: Ie_S2_P5E.1_K5.1_C5.1_H5.1_A5.1_F5.1_[+10TCT]_T5.1 (ssRNA)
RNA: B18 RNA with C37A, U39C, A40U
B25: Ie_S2_P5E.1_K5.1_C5.1_H5.1_A5.1_F5.1_[+9TCC]_T5.1 (ssRNA)
RNA: B18 RNA with C37U, U38C, U39C
B26: Ie_S2_P5E.1_K5.1_C5.1_H5.1_A5.1_F5.1_[+10TTT]_T5.1 (ssRNA)
RNA: B18 RNA with C37A, A40U
B27: Ie_S2_P5E.1_K5.1_C5.1_H5.1_A5.1_F5.1_[+8TTC]_T5.1 (ssRNA)
RNA: B18 RNA with C37U, U38C
B28: Ie_S2_P5E.1_K5.1_C5.1_H5.1_A5.1_F5.1_[+9TTC]_T5.1 (ssRNA)
RNA: B18 RNA with C37U, U39C
B29: Ie_S2_P5E.1_K5.1_C5.1_H5.1_A5.1_F5.1_[+9CTC]_T5.1 (ssRNA)
RNA: B18 RNA with U39C
B30: Ie_S2_P5E.1_K5.1_C5.1_H5.1_A5.1_F5.1_[+8CCC]_T5.1 (ssRNA)
RNA: B18 RNA with U36C, U38C
B31: Ib_S2_P3E.1_K3.1_C3.1_H3.1_[G2A]_[T3C]_A3.1_F3.1_T3.1 (ssRNA)
RNA: UUUGAUUAAUAUGAUAUCGUUCUUUCUUACAUAUAUUCUUUCUCGAUAUCAUAUUAAUCUUU
B32: Ib_S2_P3E.1_K3.1_C3.1_H3.1_[G2C]_[A4C]_A3.1_F3.1_T3.1 (ssRNA)
RNA: B31 RNA with A29C, C30U, A31C
B33: Ib_S2_P3E.1_K3.1_C3.1_H3.1_[G2A]_[A4T]_A3.1_F3.1_T3.1 (ssRNA)
RNA: B31 RNA with C30U, A31U
B34: Ib_S2_P3E.1_K3.1_C3.1_H3.1_[G2C]_[A4T]_A3.1_F3.1_T3.1 (ssRNA)
RNA: B31 RNA with A29C, C30U, A31U
B35: Ib_S2_P3E.1_K3.1_C3.1_H3.1_[G2T]_[A4T]_A3.1_F3.1_T3.1 (ssRNA)
RNA: B31 RNA with A29U, C30U, A31U
B36: Ic_S2_P3E.1_K3.1_C3.1_H3.1_A3.1_[T5C]_F3.1_T3.1 (ssRNA)
RNA: B31 RNA with A29G, C30U, U32C
B37: Ie_S2_P5E.1_K5.1_C5.1_H5.1_A5.1_[+7CTCT]_F5.1_T5.1 (ssRNA)
RNA: UUUGAUUAAUAUGAUAUCGUUCUUUCUUGUAUUACUCUUUAUUCUUUCUCGAUAUCAUAUUAAUCUUU
B38: Ie_S2_P5E.1_K5.1_C5.1_H5.1_A5.1_F5.1_[+10TTCC]_T5.1 (ssRNA)
RNA: B37 RNA with C35U, C37A, U40C, A41C
B39: Ie_S2_P5E.1_K5.1_C5.1_H5.1_A5.1_[+7TCTC]_F5.1_T5.1 (ssRNA)
RNA: B37 RNA with C35U, U36C, C37U, U38C
B40: Ie_S2_P5E.1_K5.1_C5.1_H5.1_A5.1_F5.1_[+8CCTC]_T5.1 (ssRNA)
RNA: B37 RNA with C35U, U36C, U39C
B41: Ie_S2_P5E.1_K5.1_C5.1_H5.1_A5.1_F5.1_[+8TTCC]_T5.1 (ssRNA)
RNA: B37 RNA with C35U, C37U, U38C, U39C
B42: Ie_S2_P5E.1_K5.1_C5.1_H5.1_A5.1_[+7CCCT]_F5.1_T5.1 (ssRNA)
RNA: B37 RNA with U36C
B43: Ie_S2_P5E.1_K5.1_C5.1_H5.1_A5.1_F5.1_[+9CCTC]_T5.1 (ssRNA)
RNA: B37 RNA with C35U, U38C, U40C
B44: Ie_S2_P5E.1_K5.1_C5.1_H5.1_A5.1_F5.1_[+9TCTC]_T5.1 (ssRNA)
RNA: B37 RNA with C35U, C37U, U38C, U40C
B45: Ie_S2_P5E.1_K5.1_C5.1_H5.1_A5.1_F5.1_[+9CCCT]_T5.1 (ssRNA)
RNA: B37 RNA with C35U, U38C, U39C
B46: Ie_S2_P5E.1_K5.1_C5.1_H5.1_A5.1_[+7TTCC]_F5.1_T5.1 (ssRNA)
RNA: B37 RNA with C35U, U38C
B47: Ie_S2_P5E.1_K5.1_C5.1_H5.1_A5.1_F5.1_[+9TTCC]_T5.1 (ssRNA)
RNA: B37 RNA with C35U, C37U, U39C, U40C
B48: Ie_S2_P5E.1_K5.1_C5.1_H5.1_A5.1_F5.1_[+8CCCT]_T5.1 (ssRNA)
RNA: B37 RNA with C35U, U36C, U38C
B49: Ie_S2_P5E.1_K5.1_C5.1_H5.1_A5.1_[+7CCTC]_F5.1_T5.1 (ssRNA)
RNA: B37 RNA with U36C, C37U, U38C

Molecular target: T1, PUF4 RNA-binding domain
Test: Mg; RNA-MaP; 20 mM Na-HEPES pH 7.4, 30 mM KOAc, 0.75 mM MgCl2, 0.1% Tween-20, 5% glycerol, 0.1 mg/mL BSA, 2 mM DTT; 25 C; 0.0125-409.6 nM protein
Settings: tags: N-His6-TEV cleaved; C-SNAP kept, Cy3B-labelled; label: tethered on chip by stalled RNA polymerase

Binder	Kd [nM]
ACAAACCUUCCUCGUAUAUAUAACAAAC (ssRNA) [Ie_S3_P3E.2_K3.1_C3.2_H3.1_[+1CCTC]_A3.1_F3.1_T3.2]	565
B1	11.6
B2	1.76
B3	10.3
B4	2.29
B5	47.3
B6	12.8
B7	17.2
B8	7.72
B9	2.21
B10	7.79
B11	15.2
B12	13.7
B13	6.98
B14	1.84
B15	57.6
B16	7.84
B17	13.1
B18	10.5
B19	15.8
B20	7.29
B21	25.2
B22	2.01
B23	8.05
B24	3.7
B25	15.6

Binder	Kd [nM]
B26	1.17
B27	7.64
B28	14.1
B29	22.6
B30	12.8
B31	> 2300
B32	2150
B33	> 2300
B34	1670
B35	> 2300
B36	1.76
B37	51.9
B38	2.02
B39	18.3
B40	15.8
B41	9.45
B42	74
B43	16.4
B44	10.2
B45	8.29
B46	10.1
B47	13.2
B48	11.6
B49	49
ACAAACCUUUCGUAUAUAUAACAAAC (ssRNA) [Ie_S3_P3E.2_K3.1_C3.2_H3.1_[+1TC]_A3.1_F3.1_T3.2]	927
